Experimental data published in patent US10800847.

Key:
[1] = molecular target: HLA-Cw*0702 (Cw7) (human); experiment: Luminex, iBeads (#6), 1:8
[2] = molecular target: HLA-Cw*1402 (Cw14) (human); experiment: Luminex, iBeads (#6), 1:8
[3] = molecular target: HLA-Cw*1502 (Cw15) (human); experiment: Luminex, iBeads (#6), 1:8
[4] = molecular target: HLA-A*2902 (A29) single antigen on beads (human); experiment: Luminex iBeads (#6), IVIg 1:8
[5] = molecular target: HLA-A*3001 (A30) single antigen on beads (human); experiment: Luminex iBeads (#6), IVIg 1:8
[6] = molecular target: HLA-A*3002 (A30) single antigen on beads (human); experiment: Luminex iBeads (#6), IVIg 1:8
[7] = molecular target: HLA-A*3101 (A31) single antigen on beads (human); experiment: Luminex iBeads (#6), IVIg 1:8
[8] = molecular target: HLA-A*3201 (A32) single antigen on beads (human); experiment: Luminex iBeads (#6), IVIg 1:8
[9] = molecular target: HLA-A*3301 (A33) single antigen on beads (human); experiment: Luminex iBeads (#6), IVIg 1:8
[10] = molecular target: HLA-A*3303 (A33) single antigen on beads (human); experiment: Luminex iBeads (#6), IVIg 1:8
[11] = molecular target: HLA-A*3401 (A34) single antigen on beads (human); experiment: Luminex iBeads (#6), IVIg 1:8
[12] = molecular target: HLA-A*3402 (A34) single antigen on beads (human); experiment: Luminex iBeads (#6), IVIg 1:8
[13] = molecular target: HLA-A*3601 (A36) single antigen on beads (human); experiment: Luminex iBeads (#6), IVIg 1:8
[14] = molecular target: HLA-A*4301 (A43) single antigen on beads (human); experiment: Luminex iBeads (#6), IVIg 1:8
[15] = molecular target: HLA-A*6601 (A66) single antigen on beads (human); experiment: Luminex iBeads (#6), IVIg 1:8
[16] = molecular target: HLA-A*6602 (A66) single antigen on beads (human); experiment: Luminex iBeads (#6), IVIg 1:8
[17] = molecular target: HLA-A*6801 (A68) single antigen on beads (human); experiment: Luminex iBeads (#6), IVIg 1:8
HLA-B*0702 (B7) (human) = experiment: Luminex iBeads (#6), IVIg diluted 1:8
HLA-B*0801 (B8) (human) = experiment: Luminex iBeads (#6), IVIg diluted 1:8
HLA-B*1301 (B13) (human) = experiment: Luminex iBeads (#6), IVIg diluted 1:8
HLA-B*1302 (B13) (human) = experiment: Luminex iBeads (#6), IVIg diluted 1:8
HLA-B*1402 (B65) (human) [18] = experiment: Luminex iBeads (#6), IVIg diluted 1:8
HLA-B*1501 (B62) (human) = experiment: Luminex iBeads (#6), IVIg diluted 1:8
HLA-B*1502 (B75) (human) = experiment: Luminex iBeads (#6), IVIg diluted 1:8
HLA-B*1503 (B72) (human) = experiment: Luminex iBeads (#6), IVIg diluted 1:8
HLA-B*1510 (B71) (human) = experiment: Luminex iBeads (#6), IVIg diluted 1:8
HLA-B*1511 (B75) (human) = experiment: Luminex iBeads (#6), IVIg diluted 1:8
HLA-B*1512 (B76) (human) = experiment: Luminex iBeads (#6), IVIg diluted 1:8
HLA-B*1513 (B77) (human) = experiment: Luminex iBeads (#6), IVIg diluted 1:8
HLA-B*1516 (B63) (human) = experiment: Luminex iBeads (#6), IVIg diluted 1:8
HLA-B*1801 (B18) (human) = experiment: Luminex iBeads (#6), IVIg diluted 1:8
[19] = molecular target: Serum albumin on negative control beads (HSA/BSA) (human or bovine); experiment: Luminex iBeads (#6), IVIg diluted 1:8
[20] = molecular target: HLA-A*2902 (A29) single antigen on beads (human); experiment: Luminex, iBead vs regular bead, IVIg 1:8
[21] = molecular target: HLA-A*3001 (A30) single antigen on beads (human); experiment: Luminex, iBead vs regular bead, IVIg 1:8
[22] = molecular target: HLA-A*3101 (A31) single antigen on beads (human); experiment: Luminex, iBead vs regular bead, IVIg 1:8
[23] = molecular target: HLA-A*3301 (A33) single antigen on beads (human); experiment: Luminex, iBead vs regular bead, IVIg 1:8
[24] = molecular target: HLA-A*3303 (A33) single antigen on beads (human); experiment: Luminex, iBead vs regular bead, IVIg 1:8
[25] = molecular target: HLA-A*3401 (A34) single antigen on beads (human); experiment: Luminex, iBead vs regular bead, IVIg 1:8
[26] = molecular target: HLA-A*3402 (A34) single antigen on beads (human); experiment: Luminex, iBead vs regular bead, IVIg 1:8
[27] = molecular target: HLA-A*3601 (A36) single antigen on beads (human); experiment: Luminex, iBead vs regular bead, IVIg 1:8
[28] = molecular target: HLA-A*6601 (A66) single antigen on beads (human); experiment: Luminex, iBead vs regular bead, IVIg 1:8
[29] = molecular target: HLA-A*6801 (A68) single antigen on beads (human); experiment: Luminex, iBead vs regular bead, IVIg 1:8
HLA-B*1402 (B65) (human) [30] = experiment: Luminex regular beads (#7), IVIg diluted 1:8

IVIg GamaSTAN S/D (Talecris Biotherapeutics, USA) (antibody)
MFI [1]: 3480 MFI
MFI [2]: 1820 MFI
MFI [3]: 7670 MFI
MFI [4]: 4430 MFI
MFI [5]: 624 MFI
MFI [6]: 929 MFI
MFI [7]: 351 MFI
MFI [8]: 1820 MFI
MFI [9]: 1880 MFI
MFI [10]: 725 MFI
MFI [11]: 4320 MFI
MFI [12]: 1210 MFI
MFI [13]: 1380 MFI
MFI [14]: 4180 MFI
MFI [15]: 2610 MFI
MFI [16]: 4320 MFI
MFI [17]: 634 MFI
MFI (HLA-B*0702 (B7) (human)): 2010 MFI
MFI (HLA-B*0801 (B8) (human)): 324 MFI
MFI (HLA-B*1301 (B13) (human)): 1840 MFI
MFI (HLA-B*1302 (B13) (human)): 1200 MFI
MFI (HLA-B*1402 (B65) (human) [18]): 0 MFI
MFI (HLA-B*1501 (B62) (human)): 394 MFI
MFI (HLA-B*1502 (B75) (human)): 709 MFI
MFI (HLA-B*1503 (B72) (human)): 0 MFI
MFI (HLA-B*1510 (B71) (human)): 492 MFI
MFI (HLA-B*1511 (B75) (human)): 2380 MFI
MFI (HLA-B*1512 (B76) (human)): 5970 MFI
MFI (HLA-B*1513 (B77) (human)): 904 MFI
MFI (HLA-B*1516 (B63) (human)): 3280 MFI
MFI (HLA-B*1801 (B18) (human)): 0 MFI
MFI [19]: 5030 MFI
Difference % (iBead MFI vs regular bead MFI) [20]: 348%
Difference % (iBead MFI vs regular bead MFI) [21]: -32%
Difference % (iBead MFI vs regular bead MFI) [22]: 189%
Difference % (iBead MFI vs regular bead MFI) [23]: 68%
Difference % (iBead MFI vs regular bead MFI) [24]: 125%
Difference % (iBead MFI vs regular bead MFI) [25]: 42%
Difference % (iBead MFI vs regular bead MFI) [26]: 76%
Difference % (iBead MFI vs regular bead MFI) [27]: 145%
Difference % (iBead MFI vs regular bead MFI) [28]: 86%
Difference % (iBead MFI vs regular bead MFI) [29]: 230%
MFI (HLA-B*1402 (B65) (human) [30]): 670 MFI
